Tests used:
[1] = system: T7 RNA polymerase, SNAPf fusion (T7 RNAP-SNAPf), freely diffusing (bacteriophage T7?); conditions: Michaelis Km of transcription; 10 mM MgCl2, 37 C; Vmax 62 nM/s
[2] = system: T7 RNA polymerase, SNAPf fusion, anchored on DNA origami tile (T7-chip) (bacteriophage T7?); conditions: apparent Michaelis Km of transcription for externally diffusing gene; 10 mM MgCl2, 37 C; Vmax 34 nM/s

In the case of “sfGFP gene with T7 promoter (942 nt transcript)”, the K half [1] is reported as 5.6 nM and the K half [2] is reported as 1010 nM.
